Measurements reported in article doi:10.1101/2025.11.11.687647 (bioRxiv, 2025).

Biological target: the molecule itself
Assay: cryo-EM structure

B1: CT–PT–BCCP fragment of MtPC (degradation product) (domain or fragment)
chain: ADRGTKILNFLADVTVNNPYGSRPSTIYPDDKLPDLDLRAAPPAGSKQRLVKLGPEGFARWLRESAAVGVTDTTFRDAHQSLLATRVRTSGLSRVAPYLARTMPQLLSVECWGGATYDVALRFLKEDPWERLATLRAAMPNICLQMLLRGRNTVGYTPYPEIVTSAFVQEATATGIDIFRIFDALNNIESMRPAIDAVRETGSAIAEVAMCYTGDLTDPGEQLYTLDYYLKLAEQIVDAGAHVLAIKDMAGLLRPPAAQRLVSALRSRFDLPVHLHTHDTPGGQLASYVAAWHAGADAVDGAAAPLAGTTSQPALSSIVAAAAHTEYDTGLSLSAVCALEPYWEALRKVYAPFESGLPGPTGRVYHHEIPGGQLSNLRQQAIALGLGDRFEEIEEAYAGADRVLGRLVKVTPTSKVVGDLALALVGAGVSADEFASDPARFGIPESVLGFLRGELGDPPGGWPEPLRTAALAGRGAARPTAQLAADDEIALSSVGAKRQATLNRLLFPSPTKEFNEHREAYGDTSQLSANQFFYGLRQGEEHRVKLERGVELLIGLEAISEPDERGMRTVMCILNGQLRPVLVRDRSIASAVPAAEKADRGNPGHIAAPFAGVVTVGVCVGERVGAGQTIATIEAMKMEAPITAPVAGTVERVAVSDTAQVEGGDLLVVVS
stoichiometry N: 2
